Results reported in the supplement of paper PMC10567573.

B1: RHOBTB3 (parent)
chain: KVVEAHKIVLCAVSHVFMLLFNVK

Variants of: B1
Test: protein stability index of a GFP-peptide fusion (GPS, HEK-293T) (PSI 1-6); higher = more stable
Conditions: c terminus: a fixed tail appended
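Note: lentivirally expressed fusions sorted by FACS into six bins by GFP to DsRed ratio, PSI derived from sequencing read proportions per bin multiplied by bin number.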

Protein stability index: each site, then its substitutions
V23: P 2.86, Y 3.03, M 1.75, T 3.33, F 2.99, R 3.19, S 2.44, H 3.18, G 3.05, Q 1.91, D 2.29, L 2.62, C 2.47, K 3.66, W 2.5, I 2.57
V9: H 2.71, L 3.24, S 3.31, Y 1.64, K 3.01, P 2.36, E 2.79, G 2.12, I 2.87, M 2.83, W 3.46, A 1.87, C 2.32, T 2.47
V3: L 2.09, I 3.11, Q 3.48, Y 2.53, S 2.39, P 3.35, D 2.2, E 1.82, K 3.12, M 3.1, N 3.87, F 3.62, C 2.3, G 2.38, R 2.02, T 2.36
F17: G 3.57, W 2.49, S 2.33, A 2.4, R 2.23, V 1.88, T 2.9, E 3.12, I 2.06, M 2.78, H 3.54, C 3.12, K 2.76, Q 2.41
K1: Y 2.58, S 2.46, A 3.06, Q 1.9, T 2.71, N 2.52, F 4.17, W 3.19, I 2.87, H 2.2, E 3.04, D 4.55, P 3.1, C 3.06
V13: H 2.36, W 1.82, E 2.5, A 1.41, M 4.81, P 2.59, N 2.33, R 3.01, G 2.42, I 2.66, T 4.13, K 3.18, Q 2.9, L 2.12, C 3.14, Y 2.62
L19: P 2.31, R 3.74, I 3.67, Y 2.59, T 3.4, W 3.11, S 2.2, G 2.75, C 2.24, F 3.32, D 3.41, A 2.69, E 2.2, N 2.18
V16: S 3.16, L 2.43, K 3.55, M 2.3, H 2.98, D 2.39, F 2.99, Y 2.19, R 2.79, T 3.44, I 2.65, N 3.11, W 3.09, A 2.97, G 3.44
E4: S 1.9, A 2.24, K 3.02, L 2.08, Q 2.23, C 2.67, R 2.69, P 2.37, D 2.33, I 2.78, Y 2.75, W 1.42
N22: D 3.27, Y 1.85, A 2.86, G 2.71, P 2.1, T 4.37, H 2.8, Q 2.84, C 2.31, M 3.79, S 2.72, F 2.43, E 2.47, I 3.19, R 2.69
H15: F 2.06, S 2.82, P 1.89, R 2.27, Q 2.78, Y 3.36, N 3.41, I 3.89, C 3.87, V 3.1
M18: I 3.05, H 2.34, C 2.3, P 2.3, N 3.02, Q 2.43, D 1.92, R 1.14, G 2.75, K 1.55, S 1.95
V2: A 2.96, F 2.5, P 3.44, C 2.18, G 2.64, S 3.24, Y 1.86, K 1.62, M 2.9, L 2.32, T 2.6, E 2.64, I 3.58
S14: Y 2.55, F 2.8, G 2.17, V 2.49, Q 1.94, I 2.88, L 2.6, M 3.96, A 2.36, H 3.58, T 2.95, D 2.17, K 2.65
K7: R 2.65, D 3.98, E 2.9, G 2.79, Y 3.35, P 2.02, T 2.64, V 2.31, W 2.34, L 2.74, Q 3, A 3.36, F 2.99, N 2.31, S 2.01
K24: M 2.27, Y 2.57, A 3.31, N 4.04, D 3.08, I 2.06, F 2.39, G 2.28, P 3.35, R 2.48, C 2.8
I8: P 2.29, R 2.17, K 2.59, T 2.93, G 2.84, V 1.68, A 2.45, E 1.98, N 1.89, H 2.52, Y 1.88, F 2.48, D 2.04
L10: D 2.5, F 2.66, Y 3.18, V 3.3, S 3.43, R 1.64, N 3.5, A 1.75, I 2.64, P 1.82, G 3.06, K 2.13
F21: L 2.76, D 3.1, P 1.98, I 3.17, H 2.51, G 4.01, A 3.13, V 3.87, W 2.5, E 1.88, Y 2.14, M 3.68, N 2.8
A5: D 3.37, C 2.77, Y 3.88, F 2.45, W 3.03, P 3.11, M 3.42, L 1.76, G 3.1, E 3.14, K 2.58, S 3.05, V 2.48, Q 4.3, R 3.59, T 1.72
L20: N 3.15, V 2.42, F 2.97, I 1.74, G 1.26, H 3.28, M 2.63, R 1.77, P 2.49, S 2.6, Y 3.49, K 1.89, W 1.9, D 3.54, Q 2.37
C11: N 1.88, S 1.98, W 2.66, F 1.94, L 2.24, P 2.8, I 4.05, D 2.13, K 1.75, A 2.85, R 1.98, E 1.86, M 2.26, V 3.24, Q 2.37, G 2.26
H6: M 1.63, K 2.65, P 2.4, C 2.58, T 1.79, N 3.4, A 1.84, R 3.29, G 1.84, Q 1.5, I 1.85, S 1.92, L 1.75, V 1.77, F 2.13, W 2.24
A12: N 3.15, I 1.96, C 2.29, L 3.63, Q 2.37, T 1.6, M 2.2, F 2.55, P 2.73, S 2.78, R 2.33, Y 2.46, D 3.75, V 2.57
